# Assay results: publication PMC6791878, “Evaluation of integrin αvβ6 cystine knot PET tracers to detect cancer and idiopathic pulmonary fibrosis” (Nature Communications, 2019)
# “And” between values parts separate entries of the source, which are not always exact repeats. Identical values can stand only once. Like-named read-outs stand apart in the source and are kept apart here. Where a SMILES comes first, the peptide text is derived from it. Bridges are numbered along the chain shown (N, C = ends). The star is where a group is joined. DOTA = O=C(O)CN1CCN(CC(=O)O)CCN(CC(=O)*)CCN(CC(=O)O)CC1
# What was measured:
# [1] = test system: αvβ6 expressing BxPC3 pancreatic cancer xenografts; conditions: for Tumor: αvβ6 (+)
# Protocol: (§1) Female athymic nude mice, 4–6 weeks old (Charles River), were subcutaneously shoulder-injected with 10^7 cells suspended in 100 µL PBS. Mice were used for imaging and biodistribution studies when xenografted tumors grew to a diameter of ~1 cm.
# (§2) Tumor-bearing Nu/Nu female mice (n = 3 for each probe) were anesthetized using 2% isoflurane in oxygen and injected with ~100 µCi (~0.15 nmol) of the tracers described above via the tail vein. Five-minute static PET scans were acquired on an Inveon PET-CT or Inveon D-PET scanner (Siemens Healthcare, Malvern PA). Images were reconstructed by a two-dimensional ordered expectation maximum subset algorithm and calibrated as described below. ROIs were drawn over the tumor on decay-corrected whole-body images using Inveon Research Workplace (IRW) software (Siemens) or ASIPro VM software (Siemens). ROIs were converted to counts g^−1 min^−1, and %ID g^−1 values were determined assuming a tissue density of 1 g ml^−1.
# (§3) Scanner activity calibration was performed to map between PET image units and units of radioactivity concentration. A preweighed 50-mL centrifuge tube was filled with distilled water and ^64CuCl2 (∼9.3 MBq [∼250 μCi] as determined by the dose calibrator) was used to simulate the whole body of the mouse. This tube was weighed, centered in the scanner aperture, and imaged for a 30-min static image, single bed position. From the sample weight and assuming a density of 1 g ml^−1, the activity concentration in the bottle was calculated in units of μCi mL^−1. Eight planes were acquired in the coronal section. A rectangular region of interest (ROI) (counts/pixel/s) was drawn on the middle of eight coronal planes.
# [2] = in vivo; conditions: female, athymic nude (Nu/Nu), mouse, iv, total radioactivity; for tissue uptake at 2 h: microPET 2 hr; for tissue uptake at 4 h: microPET 4 hr; for tissue uptake at 24 h: microPET 24 hr; for tissue to tissue ratio at 1 h: tumor / muscle, 100 uCi
# Protocol: as §1, §2, §3
# [3] = PET, 1 h p.i., average ± SD, n = 3
# [4] = microPET 2 hr, individual mice, listed as R01 DOTA Cu-64
# [5] = microPET 4 hr, individual mice, listed as R01 DOTA Cu-64
# [6] = kidney, PET, 1 h p.i., average ± SD, n = 3
# [7] = kidney, microPET 1 hr, individual mice
# [8] = liver, PET, 1 h p.i., average ± SD, n = 3
# [9] = liver, microPET 1 hr, individual mice
# [10] = muscle, PET, 1 h p.i., average ± SD, n = 3
# [11] = muscle, microPET 1 hr, individual mice
# [12] = tumor (BxPC3 xenograft), Tumor avb6(+), microPET 1 hr, individual mice, one line per mouse
# [13] = tumor (BxPC3 xenograft), Tumor avb6(+), individual mice
# [14] = tumor (BxPC3 xenograft, αvβ6 positive), Tumor, PET, 1 h p.i., αvβ6 (+), average ± SD, n = 3
# [15] = microPET 4 hr, individual mice, listed as R01-MG DOTA Cu-64
# [16] = microPET 1 hr, individual mice, listed as Ro1-MR DOTA Cu-64
# [17] = microPET 4 hr, individual mice, listed as R01-MR DOTA Cu-64
# [18] = microPET 24 hr, individual mice, listed as R01-MR DOTA Cu-64
# 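Also: shoulder subcutaneous xenografts near 1 cm, tracer given via tail vein, 5-min static PET, ROI activity on decay-corrected images converted to %ID/g with tissue density taken as 1 g/mL.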
Structure (SMILES),"Tumor [1, 3]","Kidney [1, 3]","tissue uptake at 1 h [2, 6]","tissue uptake at 1 h [2, 7]","tissue uptake at 2 h ([2]; kidney, individual mice)","tissue uptake at 4 h ([2]; kidney, individual mice)","tissue uptake at 24 h ([2]; kidney, individual mice)","tissue uptake at 1 h [2, 9]","tissue uptake at 2 h ([2]; liver, individual mice)","tissue uptake at 4 h ([2]; liver, individual mice)","tissue uptake at 24 h ([2]; liver, individual mice)","tissue uptake at 1 h [2, 10]","tissue uptake at 1 h [2, 11]","tissue uptake at 2 h ([2]; muscle, individual mice)","tissue uptake at 4 h ([2]; muscle, individual mice)","tissue uptake at 24 h ([2]; muscle, individual mice)","tissue uptake at 1 h [2, 12]","tissue uptake at 2 h [2, 13]","tissue uptake at 4 h [2, 13]","tissue uptake at 24 h [2, 13]",also measured
"CC[C@H](C)[C@@H]1NC(=O)[C@@H](NC(=O)CNC(=O)CN2CCN(CC(=O)O)CCN(CC(=O)O)CCN(CC(=O)O)CC2)CSSC[C@@H]2NC(=O)[C@H](C)NC(=O)CNC(=O)[C@@H]3CCCN3C(=O)[C@@H]3CSSC[C@@H](C(=O)NCC(N)=O)NC(=O)[C@H](Cc4ccc(O)cc4)NC(=O)CNC(=O)[C@H](CC(N)=O)NC(=O)CNC(=O)[C@H](CCCNC(=N)N)NC(=O)[C@H](CSSC[C@H](NC(=O)[C@H](CCCNC(=N)N)NC(=O)[C@H](Cc4ccccc4)NC(=O)[C@H](CC(C)C)NC(=O)[C@H](CC(C)C)NC(=O)[C@H]([C@@H](C)O)NC(=O)CNC(=O)[C@H](CC(C)C)NC(=O)[C@H](CC(=O)O)NC(=O)[C@H]([C@@H](C)O)NC(=O)[C@H](CCCNC(=N)N)NC(=O)[C@H](CCSC)NC(=O)[C@H](CC(N)=O)NC(=O)[C@H](CC(C)C)NC1=O)C(=O)N[C@@H](CCCNC(=N)N)C(=O)N[C@@H](CCCNC(=N)N)C(=O)N[C@@H](CC(=O)O)C(=O)N[C@@H](CO)C(=O)N[C@@H](CC(=O)O)C(=O)N3)NC(=O)[C@H]([C@@H](C)CC)NC2=O [[^64Cu]DOTA-R01, metal not drawn]",~ 3 %ID g^−1,~ 30 %ID g^−1,30.3 ± 2.33 %ID/g,32.9 %ID/g,34.3 %ID/g,29.8 %ID/g,11.5 %ID/g,2.34 %ID/g,1.82 %ID/g,1.79 %ID/g,2.93 %ID/g,0.433 ± 0.008 %ID/g,0.427 %ID/g,0.404 %ID/g,0.399 %ID/g,0.37 %ID/g,2.99 %ID/g,2.87 %ID/g,2.39 %ID/g,1.85 %ID/g,"Muscle ([1]; microPET 1 hr, individual mice, listed as Ro1 DOTA Cu-64): 0.4306 %ID/g; Muscle [1, 4]: 0.407 %ID/g; Tumor avb6(+) [1, 4]: 2.883 %ID/g; Kidney [1, 5]: 29.77 %ID/g; Muscle [1, 5]: 0.4024 %ID/g; Muscle ([1]; microPET 24 hr, individual mice, listed as R01 DOTA Cu-64): 0.3725 %ID/g; tissue uptake at 1 h [2, 8]: 2.26 ± 0.11 %ID/g; tissue uptake at 1 h [2, 14]: 3.07 ± 0.17 %ID/g; tissue to tissue ratio at 1 h [2]: 7.09 ± 0.27"
"CC[C@H](C)[C@@H]1NC(=O)[C@@H](NC(=O)CNC(=O)CN2CCN(CC(=O)O)CCN(CC(=O)O)CCN(CC(=O)O)CC2)CSSC[C@@H]2NC(=O)[C@H](C)NC(=O)CNC(=O)[C@@H]3CCCN3C(=O)[C@@H]3CSSC[C@@H](C(=O)NCC(N)=O)NC(=O)[C@H](Cc4ccc(O)cc4)NC(=O)CNC(=O)[C@H](CC(N)=O)NC(=O)CNC(=O)[C@H](CCCNC(=N)N)NC(=O)[C@H](CSSC[C@H](NC(=O)[C@H](CCCNC(=N)N)NC(=O)[C@H](Cc4ccccc4)NC(=O)[C@H](CC(C)C)NC(=O)[C@H](CC(C)C)NC(=O)[C@H]([C@@H](C)O)NC(=O)CNC(=O)[C@H](CC(C)C)NC(=O)[C@H](CC(=O)O)NC(=O)[C@H]([C@@H](C)O)NC(=O)[C@H](CCCNC(=N)N)NC(=O)CNC(=O)[C@H](CC(N)=O)NC(=O)[C@H](CC(C)C)NC1=O)C(=O)N[C@@H](CCCNC(=N)N)C(=O)N[C@@H](CCCNC(=N)N)C(=O)N[C@@H](CC(=O)O)C(=O)N[C@@H](CO)C(=O)N[C@@H](CC(=O)O)C(=O)N3)NC(=O)[C@H]([C@@H](C)CC)NC2=O [[^64Cu]DOTA-R01-MG, metal not drawn]",~ 3 %ID g^−1,~ 30 %ID g^−1,28.4 ± 2.61 %ID/g,25.3 %ID/g,26.9 %ID/g,25.6 %ID/g,10.8 %ID/g,1.77 %ID/g,2.38 %ID/g,2.4 %ID/g,3.39 %ID/g,0.472 ± 0.003 %ID/g,0.471 %ID/g,0.398 %ID/g,0.385 %ID/g,0.394 %ID/g,2.93 %ID/g,2.27 %ID/g,2.22 %ID/g,2.52 %ID/g,"Liver [1, 3]: 2.14 ± 0.38 % injected dose gram^−1; Tumor avb6(+) ([1]; microPET 1 hr, individual mice, one line per mouse, listed as Ro1-MG DOTA Cu-64): 2.952 %ID/g; Muscle ([1]; microPET 1 hr, individual mice, listed as Ro1-MG DOTA Cu-64): 0.4707 %ID/g; Muscle ([1]; microPET 2 hr, individual mice, listed as R01-MG DOTA Cu-64): 0.4023 %ID/g and 0.398 %ID/g; Liver [1, 15]: 2.382 %ID/g; Muscle [1, 15]: 0.3296 %ID/g; Muscle ([1]; microPET 24 hr, individual mice, listed as R01-MG DOTA Cu-64): 0.3985 %ID/g and 0.3942 %ID/g; tissue uptake at 1 h [2, 14]: 2.74 ± 0.35 %ID/g; tissue to tissue ratio at 1 h [2]: 5.8 ± 0.72"
"CC[C@H](C)[C@@H]1NC(=O)[C@@H](NC(=O)CNC(=O)CN2CCN(CC(=O)O)CCN(CC(=O)O)CCN(CC(=O)O)CC2)CSSC[C@@H]2NC(=O)[C@H](C)NC(=O)CNC(=O)[C@@H]3CCCN3C(=O)[C@@H]3CSSC[C@@H](C(=O)NCC(N)=O)NC(=O)[C@H](Cc4ccc(O)cc4)NC(=O)CNC(=O)[C@H](CC(N)=O)NC(=O)CNC(=O)[C@H](CCCNC(=N)N)NC(=O)[C@H](CSSC[C@H](NC(=O)[C@H](CCCNC(=N)N)NC(=O)[C@H](Cc4ccccc4)NC(=O)[C@H](CC(C)C)NC(=O)[C@H](CC(C)C)NC(=O)[C@H]([C@@H](C)O)NC(=O)CNC(=O)[C@H](CC(C)C)NC(=O)[C@H](CC(=O)O)NC(=O)[C@H]([C@@H](C)O)NC(=O)[C@H](CCCNC(=N)N)NC(=O)[C@H](CCCNC(=N)N)NC(=O)[C@H](CC(N)=O)NC(=O)[C@H](CC(C)C)NC1=O)C(=O)N[C@@H](CCCNC(=N)N)C(=O)N[C@@H](CCCNC(=N)N)C(=O)N[C@@H](CC(=O)O)C(=O)N[C@@H](CO)C(=O)N[C@@H](CC(=O)O)C(=O)N3)NC(=O)[C@H]([C@@H](C)CC)NC2=O [[^64Cu]DOTA-R01-MR, metal not drawn] ({DOTA}-GCILNRRTDLGTLLFRCRRDSDCPGACICRGNGYCG-NH2; disulfide 2-27, 17-29, 23-35)",~ 3 %ID g^−1,~ 90 %ID g^−1,90 ± 3.64 %ID/g,94 %ID/g,90.5 %ID/g,82.3 %ID/g,37.8 %ID/g,4.66 %ID/g,3.9 %ID/g,3.44 %ID/g,6.99 %ID/g,0.536 ± 0.004 %ID/g,0.533 %ID/g,0.516 %ID/g,0.467 %ID/g,0.513 %ID/g,3.27 %ID/g,3.46 %ID/g,2.55 %ID/g,3.2 %ID/g,"kidney uptake relative to the other two candidates ([1]; 1 h p.i.): ~ 3 fold; Tumor avb6(+) ([1]; microPET 1 hr, individual mice, one line per mouse, listed as Ro1-MR DOTA Cu-64): 3.249 %ID/g; Liver [1, 16]: 4.713 %ID/g; Muscle [1, 16]: 0.5407 %ID/g and 0.5349 %ID/g; Muscle ([1]; microPET 2 hr, individual mice, listed as R01-MR DOTA Cu-64): 0.5174 %ID/g; Kidney [1, 17]: 82.8 %ID/g; Liver [1, 17]: 4.22 %ID/g; Muscle [1, 17]: 0.4687 %ID/g; Kidney [1, 18]: 38.15 %ID/g; Muscle [1, 18]: 0.5142 %ID/g; Tumor avb6(+) [1, 18]: 3.535 %ID/g; tissue uptake at 1 h [2, 8]: 4.63 ± 0.09 %ID/g; tissue uptake at 1 h [2, 14]: 3.45 ± 0.34 %ID/g; tissue to tissue ratio at 1 h [2]: 6.43 ± 0.58"
